In publication PMC5349851, “Combinatorial bZIP dimers display complex DNA-binding specificity landscapes”:

Assays:
BATF3;CEBPA = BATF3;CEBPA (human;human, UniProt Q9NR55;P49715 ;, |); test: EMSA-FRET; heterodimer; EMSA-FRET: 50 nM each labeled protein, 10 nM DNA, 50 mM potassium phosphate pH 7.4, 150 mM KCl, 0.1% BSA, 0.1% Tween-20, 5 ng/ul poly(dI-dC), 0.5 mM TCEP; 37 C; conditions: protein: recombinant;recombinant; fluorescein or TAMRA; chain copies: 2;2; label: 5' TYE 665; blunt
BATF3 = target: T1, BATF3 (human, UniProt Q9NR55); test: EMSA-FRET; homodimer; EMSA-FRET: 50 nM each labeled protein, 10 nM DNA, 50 mM potassium phosphate pH 7.4, 150 mM KCl, 0.1% BSA, 0.1% Tween-20, 5 ng/ul poly(dI-dC), 0.5 mM TCEP; 37 C; conditions: protein: recombinant; fluorescein or TAMRA; chain copies: 2; label: 5' TYE 665; blunt
T1 sequence: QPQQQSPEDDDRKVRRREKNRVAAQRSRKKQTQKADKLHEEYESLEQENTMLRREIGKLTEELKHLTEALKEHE

XBP1 [1] = target: T2, XBP1 (human, UniProt P17861); test: EMSA-FRET; homodimer; comparable to CRE; EMSA-FRET: 50 nM each labeled protein, 10 nM DNA, 50 mM potassium phosphate pH 7.4, 150 mM KCl, 0.1% BSA, 0.1% Tween-20, 5 ng/ul poly(dI-dC), 0.5 mM TCEP; 37 C; conditions: protein: recombinant; fluorescein or TAMRA; chain copies: 2; label: 5' TYE 665; blunt
T2 sequence: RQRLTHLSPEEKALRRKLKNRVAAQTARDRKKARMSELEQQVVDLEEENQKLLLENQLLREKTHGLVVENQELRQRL

JUN [2] = target: T3, JUN (human, UniProt P05412); test: EMSA-FRET; homodimer; no detectable affinity; EMSA-FRET: 50 nM each labeled protein, 10 nM DNA, 50 mM potassium phosphate pH 7.4, 150 mM KCl, 0.1% BSA, 0.1% Tween-20, 5 ng/ul poly(dI-dC), 0.5 mM TCEP; 37 C; conditions: protein: recombinant; fluorescein or TAMRA; chain copies: 2; label: 5' TYE 665; blunt
T3 sequence (P05412 243-316): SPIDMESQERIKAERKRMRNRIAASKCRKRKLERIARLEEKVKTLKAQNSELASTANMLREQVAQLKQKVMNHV

BATF3;JUN [3] = target: T4, BATF3;JUN (human;human, UniProt Q9NR55;P05412 ;, |); test: EMSA-FRET; heterodimer; EMSA-FRET: 50 nM each labeled protein, 10 nM DNA, 50 mM potassium phosphate pH 7.4, 150 mM KCl, 0.1% BSA, 0.1% Tween-20, 5 ng/ul poly(dI-dC), 0.5 mM TCEP; 37 C; conditions: protein: recombinant;recombinant; fluorescein or TAMRA; chain copies: 2;2; label: 5' TYE 665; blunt
T4 sequence (P05412 243-316, one chain of several): as the sequence (P05412 243-316) above

ATF2;BATF3 [4] = target: T5, ATF2;BATF3 (human;human, UniProt P15336;Q9NR55 ;, |); test: EMSA-FRET; heterodimer; comparable to CRE; EMSA-FRET: 50 nM each labeled protein, 10 nM DNA, 50 mM potassium phosphate pH 7.4, 150 mM KCl, 0.1% BSA, 0.1% Tween-20, 5 ng/ul poly(dI-dC), 0.5 mM TCEP; 37 C; conditions: protein: recombinant;recombinant; fluorescein or TAMRA; copies: 1;1; label: 5' TYE 665; blunt
T5 sequence 1: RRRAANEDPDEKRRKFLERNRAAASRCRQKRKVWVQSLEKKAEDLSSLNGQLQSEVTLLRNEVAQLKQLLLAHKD
T5 sequence 2: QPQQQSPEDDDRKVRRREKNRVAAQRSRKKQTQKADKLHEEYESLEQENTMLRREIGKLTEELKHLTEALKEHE

ATF3;CEBPA = ATF3;CEBPA (human;human, UniProt P18847;P49715 ;, |); test: EMSA-FRET; heterodimer; EMSA-FRET: 50 nM each labeled protein, 10 nM DNA, 50 mM potassium phosphate pH 7.4, 150 mM KCl, 0.1% BSA, 0.1% Tween-20, 5 ng/ul poly(dI-dC), 0.5 mM TCEP; 37 C; conditions: protein: recombinant;recombinant; fluorescein or TAMRA; chain copies: 2;2; label: 5' TYE 665; blunt
Chain of ATF3;CEBPA (P49715 273-345, one chain of several): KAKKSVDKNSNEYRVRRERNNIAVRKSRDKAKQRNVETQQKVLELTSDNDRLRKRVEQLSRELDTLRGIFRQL

CEBPG = target: T6, CEBPG (human, UniProt P53567); test: EMSA-FRET; homodimer; EMSA-FRET: 50 nM each labeled protein, 10 nM DNA, 50 mM potassium phosphate pH 7.4, 150 mM KCl, 0.1% BSA, 0.1% Tween-20, 5 ng/ul poly(dI-dC), 0.5 mM TCEP; 37 C; conditions: protein: recombinant; fluorescein or TAMRA; chain copies: 2; label: 5' TYE 665; blunt
T6 sequence: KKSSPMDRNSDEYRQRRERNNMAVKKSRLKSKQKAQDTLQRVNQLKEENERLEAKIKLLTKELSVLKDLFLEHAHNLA

ATF3;CEBPG = target: T7, ATF3;CEBPG (human;human, UniProt P18847;P53567 ;, |); test: EMSA-FRET; heterodimer; EMSA-FRET: 50 nM each labeled protein, 10 nM DNA, 50 mM potassium phosphate pH 7.4, 150 mM KCl, 0.1% BSA, 0.1% Tween-20, 5 ng/ul poly(dI-dC), 0.5 mM TCEP; 37 C; conditions: protein: recombinant;recombinant; fluorescein or TAMRA; chain copies: 2;2; label: 5' TYE 665; blunt
T7 sequence 1: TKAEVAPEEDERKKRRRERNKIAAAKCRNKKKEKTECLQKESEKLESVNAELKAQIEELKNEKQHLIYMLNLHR
T7 sequence 2: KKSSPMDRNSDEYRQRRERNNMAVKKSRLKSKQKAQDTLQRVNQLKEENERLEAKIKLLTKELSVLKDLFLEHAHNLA

BATF3;JUN [5] = target: T4, BATF3;JUN; test: EMSA-FRET; heterodimer; comparable to CRE-L; EMSA-FRET: 50 nM each labeled protein, 10 nM DNA, 50 mM potassium phosphate pH 7.4, 150 mM KCl, 0.1% BSA, 0.1% Tween-20, 5 ng/ul poly(dI-dC), 0.5 mM TCEP; 37 C; conditions: protein: recombinant;recombinant; fluorescein or TAMRA; chain copies: 2;2; label: 5' TYE 665; blunt
ATF2;BATF3 [6] = target: T5, ATF2;BATF3; test: as above; conditions: protein: recombinant;recombinant; fluorescein or TAMRA; copies: 1;1; label: 5' TYE 665; blunt
JUN [7] = target: T3, JUN; test: EMSA-FRET; homodimer; EMSA-FRET: 50 nM each labeled protein, 10 nM DNA, 50 mM potassium phosphate pH 7.4, 150 mM KCl, 0.1% BSA, 0.1% Tween-20, 5 ng/ul poly(dI-dC), 0.5 mM TCEP; 37 C; conditions: protein: recombinant; fluorescein or TAMRA; chain copies: 2; label: 5' TYE 665; blunt
ATF3 = target: T8, ATF3 (human, UniProt P18847); test: as above; conditions: protein: recombinant; fluorescein or TAMRA; chain copies: 2; label: 5' TYE 665; blunt
T8 sequence: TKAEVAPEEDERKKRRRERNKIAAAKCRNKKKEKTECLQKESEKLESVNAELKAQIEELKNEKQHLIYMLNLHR

XBP1 [8] = target: T2, XBP1; test: EMSA-FRET; homodimer; comparable to CRE-L; EMSA-FRET: 50 nM each labeled protein, 10 nM DNA, 50 mM potassium phosphate pH 7.4, 150 mM KCl, 0.1% BSA, 0.1% Tween-20, 5 ng/ul poly(dI-dC), 0.5 mM TCEP; 37 C; conditions: protein: recombinant; fluorescein or TAMRA; chain copies: 2; label: 5' TYE 665; blunt

Chain of BATF3;CEBPA (P49715 273-345, one chain of several): as the sequence (P49715 273-345, one chain of several) above

B1: CREA/CAAT (CRE-L-CAAT) (dsDNA)
DNA 1: GAGTCCGCCACGCAATCCGTAG
DNA 2: CTACGGATTGCGTGGCGGACTC
B1: binds (BATF3;CEBPA).

B2: CRE-L (dsDNA)
DNA 1: GAGTCCATGACGTGGCCCGTAG
DNA 2: CTACGGGCCACGTCATGGACTC
B2: no binding (BATF3); binds (XBP1 [1]); no binding (JUN [2]). B2: binds (BATF3;JUN [3]); binds (ATF2;BATF3 [4]).

B3: AP1/CAAT (TRE-CAAT) (dsDNA)
DNA 1: GAGTCCATGAGCAATCCGTAG
DNA 2: CTACGGATTGCTCATGGACTC
B3: binds (ATF3;CEBPA).

B4: CAAT (dsDNA)
DNA 1: GAGTCCATTGCGCAATCCGTAG
DNA 2: CTACGGATTGCGCAATGGACTC
B4: binds (CEBPG).

B5: CRE/CAAT (dsDNA)
DNA 1: GAGTCCATGACGCAATCCGTAG
DNA 2: CTACGGATTGCGTCATGGACTC
B5: binds (ATF3;CEBPG).

B6: CRE (dsDNA)
DNA 1: GAGTCCATGACGTCATCCGTAG
DNA 2: CTACGGATGACGTCATGGACTC
B6: binds (BATF3;JUN [5]); binds (ATF2;BATF3 [6]); binds (JUN [7]). B6: binds (BATF3); binds (ATF3); binds (XBP1 [8]).
